Source: patent publication US20060093613A1 (published 2006)

Molecular target: T1, influenza virus nucleoprotein peptide on H-2Db (mouse)
T1 peptide: ASNENMDAM
Assay: Kd or kinetics

B1: F5 TCR (TCR, V domains shown)
Valpha: GDSVTQMQGQVTLSEDDFLFINCTYSTTWYPTLFWYVQYPGEGPQLLLKVTTANNKGISRGFEATYDKGTTSFHLQKASVQESDSAVYYCVLGDRQGGRALIFGTGTTVSVSP
Vbeta: KAGVTQTPRYLIKTRGQQVTLSCSPISGHRSVSWYQQTPGQGLQFLFEYFSETQRNKGNFPGRFSGRQFSNSRSEMNVSTLELGDSALYLCASSFDSGNSPLHFGNGTRLTVT
binding result: recognises
